According to paper PMC11446282:

Biological target: fluorescent peptide probe FITC-PEG2-…-Nle-IKKLEW
Experiment: fluorescence polarisation

Chain of B55α (His-Strep-TEV fusion protein) (P63151 whole entry, the tested form may be a part): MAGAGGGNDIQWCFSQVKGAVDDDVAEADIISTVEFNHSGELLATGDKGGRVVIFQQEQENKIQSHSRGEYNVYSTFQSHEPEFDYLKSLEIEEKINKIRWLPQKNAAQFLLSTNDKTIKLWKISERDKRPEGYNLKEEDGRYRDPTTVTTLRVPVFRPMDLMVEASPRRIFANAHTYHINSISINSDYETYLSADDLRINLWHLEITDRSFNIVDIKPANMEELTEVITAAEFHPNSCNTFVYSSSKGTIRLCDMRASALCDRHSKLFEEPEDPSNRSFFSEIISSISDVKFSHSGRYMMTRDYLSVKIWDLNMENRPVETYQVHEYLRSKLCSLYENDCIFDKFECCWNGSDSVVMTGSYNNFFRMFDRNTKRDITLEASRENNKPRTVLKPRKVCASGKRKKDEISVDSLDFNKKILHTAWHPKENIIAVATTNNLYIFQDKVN

Substance: B55α (His-Strep-TEV fusion protein) (from UniProt P63151 1-447) (natural protein)
- Kd: 6 nM
